Reference: patent US20250051443A1 (NATIONAL RESEARCH COUNCIL OF CANADA, published 2025)

Experiments:
[1] = molecular target: T1, human CD3 (human, UniProt P07766 23-207; P09693 23-182; P04234 22-171); assay: apparent KD (KDapp), flow cytometry titration of the AF488-labeled mAb on Jurkat cells
[2] = molecular target: T1, human CD3; assay: flow competition on Jurkat, 100 nM unlabeled mAb; competitor AF488-SP34.2 20 nM (self)
[3] = molecular target: T2, Cynomolgus CD3 (Cynomolgus, UniProt Q95LI5 22-198; Q95LI7 23-181; Q95LI8 22-171); assay: apparent KD (KDapp), flow cytometry titration on cynomolgus HSC-F T cell line
T2 construct: whole, on cells; also called CD3 on Cynomolgus PBMCs; CD3 on HSC-F Cynomolgus T cell line
Protocol: To characterize potential cross-reactivity of the anti-human CD3 mAbs to NHP T cells, dose response flow cytometry titration studies were performed on both freshly obtained Cynomolgus PBMCs (Comparative Medicine and Animal Resources Centre—McGill University) or the Cynomolgus derived T cell line, HSC-F (Non-Human Primate Reagent Resource—NIH). Binding studies on fresh Cynomolgus PBMCs was performed on a subset of anti-CD3 mAbs (FIG. 4) whereas the Herpesvirus saimiri immortalized Cynomolgus T cell line HSC-F was employed for further evaluations (FIGS. 5A to 5C). KDapp values were calculated using a non-linear regression model of one-site binding with Hill slope (GraphPad Prism) and tabulated (Table 3b). Similar KDapp values for anti-CD3 mAb 1E2 obtained from binding to fresh Cynomolgus PBMCs (KDapp=0.28 nM) or the HSC-F T cell line (KDapp=0.39 nM) indicated the HSC-F cell line was a suitable surrogate for ex vivo NHP T cells.
HSC-F T cells obtained from the Non-Human Primate Reagent Resource (NIH) were maintained in culture in RPMI media containing 20% FBS and 40 IU/mL recombinant human IL2. 100K HSC-F cells in logarithmic cell growth were treated with graded doses of the anti-CD3 mAbs starting at 100 nM in staining buffer (SB; PBS/1% BSA/0.01% NaN3) for 2 hours at 4° C. in 96 w V-bottom plates. Following plate washing with SB, the cell pellets were resuspended with 25 μL of goat (Fab′)₂ anti-mouse IgG (H+L)− APC secondary antibody (final 5 μg/mL), incubated for 30 minutes at 4° C., followed by flow cytometry analysis. The commercial NHP cross-reactive SP34.2 anti-CD3 mAb (BD Biosciences), recombinant anti-human OKT-3 IgG2b (in house produced) and non-specific mIgG were employed as controls. 20K live events were acquired on a BD LSRFortessa flow analyzer and mean fluorescence intensities (MFI) calculated after subtraction of secondary antibody alone values. Using GraphPad Prism software, the data were analyzed using a one site specific binding with Hill slope non-linear regression model to calculate KDapp and BMax values (See Table 2).

[4] = molecular target: T1, human CD3; assay: flow competition on Jurkat, 100 nM unlabeled mAb; competitor AF488-SK7 1.5 nM
Protocol: (§1) In order to evaluate whether anti-CD3 monoclonal antibodies bind to the same epitope region, flow cytometry competition experiments on Jurkat cells were performed.
(§2) To that effect, a fixed concentration of the indicated AF488-labeled mAb were incubated with 100 nM of unlabeled monoclonal antibodies to assess if their binding capacity was impaired in presence of unlabeled mAbs. […] The AF488-OKT3 mIgG2b was labeled in-house using AlexaFluor488 protein labelling kit (Invitrogen #A10235) following manufacturer's instruction. The free dye removal step was done using Zeba™ Spin Desalting Columns, 7K MWCO (Thermo Scientific #89890). The final product was analyzed by UPLC-SEC to ensure the integrity of the labeled mAb.

[5] = molecular target: T1, human CD3; assay: flow competition on Jurkat, 100 nM unlabeled mAb; competitor AF488-UCHT1 5 nM
Protocol: as §1, §2

[6] = molecular target: T1, human CD3; assay: apparent KD (KDapp), flow cytometry titration on purified primary human T cells
Protocol: The binding characteristics of the purified anti-CD3 mAbs were assessed in titration studies on purified human primary T cells from different donor samples. Fresh ex vivo peripheral blood mononuclear cells (PBMCs) were obtained via density centrifugation over Ficoll-Paque using standard procedures and untouched T cell fractions obtained from PBMCs by negative pan-T cell selection and magnetic cell sorting. Starting from 300 nM concentrations of the anti-CD3 mAbs, eight point binding curves were generated from the resultant mean fluorescence intensity (MFI) values obtained through detection of labelled secondary antibody to bound CD3 in flow cytometry experiments (FIGS. 3A and 3B). Both commercial mouse anti-human CD3 mAb (OKT-3; Biolegend) and an in house generated IgG1 version of OKT-3 were employed as positive controls together with a non-specific mouse IgG serving as a negative binding control. Following curve fit analysis using one-site specific binding with Hill slope, the KDapp (concentration needed to achieve a half-maximum binding at equilibrium) for each mAb was calculated (Table 2).
Eight point binding titrations were performed with the anti-CD3 mAbs starting at either 300 or 100 nM on freshly purified human T cells obtained through negative selection from PBMC fractions. Briefly, 1×10⁵ human T cells (50 μL of staining buffer (SB; PBS/1% BSA/0.01% NaN3) were incubated with graded dilutions of the anti-CD3 mAbs in SB ([…]) for 2 hours at 4° C. in 96 w U-bottom plates, followed by plate washing with SB ([…]). Cell pellets were resuspended with 25 μL of a 0.25 mg/mL solution of the goat (Fab′)₂ anti-mouse IgG (H+L)− APC secondary antibody in SB, incubated at 4° C. (30 min.), washed 1× with SB, and resuspended for flow analysis. Recombinant anti-human OKT-3 IgG2b (in house produced) and non-specific mIgG were employed similarly as positive and negative controls respectively. 10K live events were acquired on a BD LSRFortessa flow analyzer and mean fluorescence intensities (MFI) calculated after subtraction of secondary antibody alone values. Using GraphPad Prism software, the data were analyzed using a one site specific binding with Hill slope non-linear regression model to calculate KDapp and BMax values (See Table 2).

[7] = molecular target: T1, human CD3; assay: flow cytometry, AF488-labeled mAb on CD3+ Jurkat cells
[8] = molecular target: T1, human CD3; assay: flow competition on Jurkat, 100 nM unlabeled mAb; competitor AF488-UCHT1 5 nM (self)
[9] = molecular target: T1, human CD3; assay: flow competition on Jurkat, 100 nM unlabeled mAb; competitor AF488-SP34.2 20 nM
Protocol: as §1, §2

[10] = molecular target: T1, human CD3; assay: flow competition on Jurkat, 100 nM unlabeled mAb; competitor AF488-SK7 1.5 nM (self)
[11] = molecular target: T1, human CD3; assay: cell-based or functional assay
[12] = molecular target: T1, human CD3; assay: apparent KD (KDapp), flow cytometry titration on Jurkat cells
Protocol: Unless otherwise stated, all media are kept are 4° C. and all incubations are performed on wet ice. Exponentially growing Jurkat cells were centrifuged and resuspended in complete medium at a cell density of 2×10⁶ cells/mL. Fifty μL/well of cells were distributed in a polypropylene v-bottom 96 well plate and serial 1/3 dilutions of purified mAbs starting at 300 nM were added and incubated for 2 hours. Cells were washed twice by centrifugation and further incubated with a FITC labeled F(ab′)2 goat anti-mouse antibody (Fc specific, #115-096-071, Jackson Immunoresearch, Cedarlane, Burlington, ON) for an hour. Cells were washed and re-suspended in medium containing Propidium iodide to exclude dead cells from analysis. Samples were filtered through a 60 μm nylon mesh filter plate (Millipore, Ireland) to remove cell aggregates. Flow cytometry analyses were performed on 2,000 viable single-cells events gated on forward scattering, side scattering parameters and propidium iodide dye exclusion using a BD-LSRFortessa flow cytometer (Becton-Dickinson Biosciences, CA, USA) and a standard filter set using BD FACSDiva™ acquisition software, according to manufacturer's instructions.

[13] = molecular target: T1, human CD3; assay: flow competition on Jurkat, 100 nM unlabeled mAb; competitor AF488-OKT-3 mIgG2b 1.5 nM (self)
[14] = molecular target: T1, human CD3; assay: flow cytometry, negative control on CD3+ Jurkat cells

Row | % residual fluorescence of labeled mAb [4] [%] | % residual fluorescence of labeled mAb [5] [%] | Kd [6] [nM] | MFI [7] [MFI] | % residual fluorescence of labeled mAb [9] [%] | Substance | further results
1 | 29 | 49 | 1.77 |  |  | SP34.2 (antibody) | Kd [1]: 10.8 nM; % residual fluorescence of labeled mAb [2]: 10%; Kd [3]: 1.29 nM
2 | 7 |  |  | 293 | 54 | UCHT1 (antibody) | % residual fluorescence of labeled mAb [8]: 8%
3 |  | 14 |  | 311 | 58 | SK7 (antibody) | % residual fluorescence of labeled mAb [10]: 9%
4 | 6 | 11 | 0.03 |  | 26 | recombinant mouse IgG2b OKT-3 produced in-house (antibody) | % max ref. OKT3 (dTomato activation) [11]: 105%; EC50 of dTomato induction (CD69 promoter), Jurkat-CD69-dTomato cells, 24 h [11]: 0.17 mg/L; IC50, indirect ADC surrogate growth inhibition (anti-mouse-DM1) on Jurkat cells [11]: 0.057 nM; Span, indirect ADC surrogate growth inhibition on Jurkat cells [11]: 91%; Kd [12]: 0.13 to 0.23 nM; % residual fluorescence of labeled mAb [13]: 8%
5 |  |  |  |  |  | Mouse IgG (antibody) | MFI [14]: 34 MFI
